T1: human iRhom2 (inactive rhomboid protein 2, isoform 1), endogenously expressed on human cells (human, UniProt Q6PJF5 1-856)
T1 sequence: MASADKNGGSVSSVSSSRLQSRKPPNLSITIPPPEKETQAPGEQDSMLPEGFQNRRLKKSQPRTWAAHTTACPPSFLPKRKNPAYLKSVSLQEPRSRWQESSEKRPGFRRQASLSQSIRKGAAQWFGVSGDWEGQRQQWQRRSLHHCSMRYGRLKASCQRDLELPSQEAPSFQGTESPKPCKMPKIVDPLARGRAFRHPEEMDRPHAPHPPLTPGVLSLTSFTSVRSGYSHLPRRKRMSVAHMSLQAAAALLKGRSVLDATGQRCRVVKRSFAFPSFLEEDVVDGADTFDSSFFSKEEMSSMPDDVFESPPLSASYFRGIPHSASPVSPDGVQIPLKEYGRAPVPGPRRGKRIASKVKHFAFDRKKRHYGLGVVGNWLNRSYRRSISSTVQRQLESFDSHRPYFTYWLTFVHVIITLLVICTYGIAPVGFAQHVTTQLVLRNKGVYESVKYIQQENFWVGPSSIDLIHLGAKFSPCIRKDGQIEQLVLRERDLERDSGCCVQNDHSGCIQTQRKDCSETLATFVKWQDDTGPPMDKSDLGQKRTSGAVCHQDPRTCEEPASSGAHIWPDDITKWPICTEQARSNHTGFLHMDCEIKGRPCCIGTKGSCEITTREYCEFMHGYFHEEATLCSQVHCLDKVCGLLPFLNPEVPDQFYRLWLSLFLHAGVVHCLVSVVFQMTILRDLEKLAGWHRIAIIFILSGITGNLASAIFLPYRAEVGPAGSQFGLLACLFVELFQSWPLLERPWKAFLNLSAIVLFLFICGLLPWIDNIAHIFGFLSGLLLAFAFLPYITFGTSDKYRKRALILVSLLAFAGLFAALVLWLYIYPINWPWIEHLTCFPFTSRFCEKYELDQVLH

T2: dog iRhom2 full length wild type, C-terminally tagged with 3 consecutive copies of the T7 epitope (dog, UniProt Q00M95 1-827)
T2 construct: whole, on cells; also called Dog-iR2-FL-WT-T7
T2 sequence: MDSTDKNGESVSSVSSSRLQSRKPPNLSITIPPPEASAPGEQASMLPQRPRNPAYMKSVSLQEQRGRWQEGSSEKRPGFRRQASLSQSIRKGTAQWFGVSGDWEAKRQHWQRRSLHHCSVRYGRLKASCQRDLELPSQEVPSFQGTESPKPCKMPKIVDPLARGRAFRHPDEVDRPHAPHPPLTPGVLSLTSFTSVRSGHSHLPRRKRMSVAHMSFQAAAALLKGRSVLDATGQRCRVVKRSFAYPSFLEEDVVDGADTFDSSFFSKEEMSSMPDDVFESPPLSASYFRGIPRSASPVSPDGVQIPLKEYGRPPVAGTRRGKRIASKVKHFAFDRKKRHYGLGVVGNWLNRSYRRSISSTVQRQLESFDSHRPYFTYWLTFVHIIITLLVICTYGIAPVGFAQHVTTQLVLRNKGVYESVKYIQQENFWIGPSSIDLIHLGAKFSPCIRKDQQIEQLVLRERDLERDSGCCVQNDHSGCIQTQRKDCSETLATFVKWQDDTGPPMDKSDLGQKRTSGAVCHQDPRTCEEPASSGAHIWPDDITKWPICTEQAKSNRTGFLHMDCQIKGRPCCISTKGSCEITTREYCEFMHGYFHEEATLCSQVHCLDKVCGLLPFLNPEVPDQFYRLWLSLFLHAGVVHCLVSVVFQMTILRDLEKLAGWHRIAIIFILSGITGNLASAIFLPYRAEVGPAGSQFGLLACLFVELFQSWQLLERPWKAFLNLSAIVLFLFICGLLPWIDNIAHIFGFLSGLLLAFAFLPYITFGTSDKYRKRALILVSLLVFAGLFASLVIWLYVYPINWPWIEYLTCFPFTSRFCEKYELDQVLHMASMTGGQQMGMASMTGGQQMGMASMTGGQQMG


How the values were obtained:
[1] = biological target: T1, human iRhom2 (inactive rhomboid protein …); experiment: cell-based or functional assay
[2] = biological target: T2, dog iRhom2 full length wild type, …; experiment: FACS, MEF-DKO-Dog-iR2-FL-WT-T7 cells
Description: In brief, immortalized MEF-DKO-EV control cells, MEF-DKO-rhesus-iR2-FL-WT-T7 cells, MEF-DKO-cyno-iR2-FL-WT-T7 cells, MEF-DKO-dog-iR2-FL-WT-T7 cells and MEF-DKO-rabbit-iR2-FL-WT-T7 cells, as well as their respective iRhom1 counterparts, were harvested with 10 mM EDTA in PBS, washed and resuspended in FACS buffer (PBS, 3% FBS, 0.05% sodium azide), and seeded in Nunc U-bottom 96-well plates (Thermo Fisher Scientific, USA) at approximately 3×10⁵ cells per well. To pellet cells and remove supernatants, the plates were centrifuged at 1,500 rpm and 4° C. for 3 minutes. For primary staining, cells were resuspended in 100 μl per well of either FACS buffer alone (controls), mouse monoclonal anti-T7 IgG (Merck Millipore, USA) at 3 μg/ml FACS buffer or the antibodies of the present disclosure also at 3 μg/ml FACS buffer and incubated on ice for 1 hour. Afterwards, plates were centrifuged at 1,500 rpm and 4° C. for 3 minutes and washed twice with 200 μl per well of FACS buffer. For secondary staining, cells were spun down and resuspended in 100 μl per well of PE-conjugated goat anti-mouse IgG F(ab′)2 detection fragment (Dianova, Germany) diluted 1:100 in FACS buffer. Protected from light, the cell suspensions were incubated on ice for 1 hour. Plates were then centrifuged at 1,500 rpm and 4° C. for 3 minutes and washed three times with 200 μl per well of FACS buffer. Finally, cells were resuspended in 150 μl per well of FACS buffer and analyzed using a BD Accuri™ C6 Plus flow cytometer (Becton Dickinson, Germany).

Row | Binder | inhibition of LPS-induced release of TNFα from THP-1 cells, 10 µg/ml, antibody purified from hybridoma [1] [% inhibition] | inhibition of LPS-induced release of TNFα from THP-1 cells, recombinant antibody [1] [% inhibition] | inhibition of PMA-induced release of HB-EGF from THP-1 cells, 3 µg/ml [1] [% inhibition] | inhibition of PMA-induced release of HB-EGF from U-937 cells [1] [% inhibition] | inhibition of PMA-induced release of IL-6R from THP-1 cells, 1 µg/ml [1] [% inhibition] | inhibition of PMA-induced release of IL-6R from U-937 cells, 1 µg/ml [1] [% inhibition] | inhibition of PMA-induced release of IL-6R from U-937 cells, 3 µg/ml [1] [% inhibition] | inhibition of PMA-induced release of TGFα from PC3 cells, 1 µg/ml [1] [% inhibition] | inhibition of PMA-induced release of TNFα from U-937 cells, 1 µg/ml [1] [% inhibition] | inhibition of PMA-induced release of TNFα from U-937 cells, 3 µg/ml [1] [% inhibition] | binding result [2] | inhibition of LPS-induced release of TNFα from PBMCs of healthy donors, 1 µg/ml [1] [% inhibition] | inhibition of LPS-induced release of TNFα from human macrophages of healthy donors [1] [% inhibition] | inhibition of PMA-induced release of HB-EGF from PBMCs of healthy donors, 1 µg/ml [1] [% inhibition] | inhibition of PMA-induced release of IL-6R from PBMCs of healthy donors, 1 µg/ml [1] [% inhibition]
1 | antibody 44 (antibody, V domains shown, Mouse IgG, kappa light chain; also called clone #44; m44) VH: QVTLKESGPGILQPSQTLSLTCSFSGFSLSTFGMGVGWIRQPSEKGLEWLAHIWWDDDKYYNPALKSRLTISKDTSKNQIFLKITNVDTAETATYYCSRIGNYGSNYWYFDVWGTGTTVTVSS VL: QIVLTQSPAVMSASPGEKVTMTCTASSSVYYMYWYQQTPGSSPRLLIYDTSNLASGVPVRFSGSGSGTSYSLTISRMEAEDAATYYCQQWNTYPLTFGAGTKLELK | 32.2 | 73.2 | 67.5 | 100 | 73 | 71.8 | 82 | 14.1 | 76.5 | 86.3 | binds |  |  |  | 
2 | antibody 57 (antibody, V domains shown, Mouse IgG, kappa light chain; also called clone #57) VH: QVTLKESGPGILQPSQTLSLTCSFSGFSLSTFGMGVGWIRQPSGKGLEWLAHIWWDDDKYYNPALKSRLTISKDTSKNQIFLKIANVDTADSATFYCARIENYGSNYWYFDVWGTGTTVTVSS VL: QIVLTQSPAIMSASPGEKVTMTCSASSSVSYMYWYQQKPGSSPRVLIYDTSNLASGVPVRFSGSGSGTSYSLTVSRMEAEDAATYYCQQWNSYPLTFGAGTKLELK |  | 59.7 |  |  |  |  |  |  |  |  | binds |  |  |  | 
3 | antibody 42 (antibody, V domains shown, Mouse IgG, kappa light chain; also called clone #42; m42) VH: QVTLKESGPGILQPSQTLSLTCSLSGFSLSTFGRGVGWIRQPSGKGLEWLAHIWWDDEKYYNPALKSRLTISKDTSKNQVFLRIANVDTADTATYYCARIQNYGSNYWYFDVWGTGTTVTVSS VL: LIVLTQSPAIMSASPGEKVTMTCGATSRISYMFWYQQKPGSSPRVLIYDTSNLASGVPVRFSGSGSGTSYSLTISRVEAEDVATYYCQQWNSYPLTFGAGTKLELK | 76.7 | 75.9 | 76.6 | 104 | 85.9 | 80.8 | 84.4 | 14.3 | 94.5 | 94.1 | binds | 77 | 93.2 | 77.6 | 85
4 | antibody 22 (antibody, V domains shown, Mouse IgG, kappa light chain; also called clone #22; m22) VH: QVTLKESGPGILQPSQTLSLTCSFSGFSLSTFGMGVGWIRQPSGKGLEWLAHIWWDDEKYYNSALKSRLTISKATSKNQVFLKIANVDTADTATYYCARISNYGSNYWYFNVWGTGTTVTVSS VL: QVVLTQSPALMSASPGEKVTMTCSAGSSVSYMYWYQQKPGSSPRVLIYDTSNLASGVPARFTGSGSGTSYSLTISRMEAEDAATYYCQQWNSYPLTFGAGTKLELK | 78.8 | 78.4 | 77.7 | 101 | 67.4 | 74.5 | 79 | 12.7 | 86.1 | 93.1 | binds | 72.8 | 78.8 | 56.5 | 79.3
5 | antibody 34 (antibody, V domains shown, Mouse IgG, kappa light chain; also called clone #34; m34) VH: QVTLKESGPGILQPSQTLSLTCSFSGFSLSTFSLGVGWIRQSSGKGLEWLAHIWWDDEKYYNPALKSRLTISKDTSKNQVFLKIANVDAADTATYYCARAYYSKSYYALDYWGQGTSVTVSS VL: DIQMTQSPSSLSASLGERVSLTCRASQEISGYLSWLQQKPDGTIKRLIYAASTLDSGVPKRFSGSRSGSDYSLAISSLESEDFADYYCLQYANFPFTFGSGTKLEIK | 27.3 | 73.8 | 64.2 | 98.2 | 71.1 | 69.3 | 74.6 |  | 68.6 | 79.9 | binds |  |  |  | 
6 | antibody 46 (antibody, V domains shown, Mouse IgG, kappa light chain; also called clone #46) VH: QVTLKESGPGILQPSQTLSLTCSFSGFSLSTFGMGVGWIRQPSGKGLEWLAHIWWDDDNYYNQALKSRLTISKDNTKNQVFLNIANVDTADTATYYCARIRSYDYDVRYAMDYWGQGTSVTVSS VL: DIKMTQSPSSMYASLRERVTITCKASQDINSYLSWFQQKPGKSPKTLIYRANRLVDGVPSRFSGSGSGQDYSLTISSLEYEDLGIYYCQQYYEFPLTFGAGTRLELK |  | 36.1 |  |  |  |  |  |  |  |  | binds |  |  |  | 
